For test [1], the target named is (His)10-p34ΔN/ΔC (p34 residues 37–292 linked to a 10 histidine tag) (Helicobacter pylori). The test is described as follows: SEC; in the presence of 4 M urea; Superose 6 10/300 GL for (His)10-p34, Superose 12 10/300 GL (1.0 ml/min) for (His)10-p34ΔN/ΔC; mass against marker proteins.
In test [2] the target is (His)10-p34(37–319) (Helicobacter pylori). The test is described as follows: SEC; Superose 6 10/300 GL, 0.5 ml/min, in the presence of 10% glycerol; mass from the Kav of the most prominent peak against marker proteins. A general note: SEC sorts molecules by how far they enter the pores of the column.
Test [3] has the same target. The experiment in a line: SEC; Superose 6 10/300 GL, in the presence of 2 M urea.
For test [4] the target is unchanged. The experiment in a line: SEC; in the presence of 4 M urea; Superose 6 10/300 GL for (His)10-p34, Superose 12 10/300 GL (1.0 ml/min) for (His)10-p34ΔN/ΔC; mass against marker proteins.

A word on the stoichiometry N: it is the number of molecules, sites or subunits per partner or assembly. As to “(His)10-p34ΔN/ΔC (p34 residues 37–292 linked to a 10 histidine tag) (domain or fragment)”, the stoichiometry N in test [1] is 6 subunits.
In the case of “(His)10-p34(37–319) (domain or fragment)”, the stoichiometry N in test [2], in test [3] and in test [4] was 6 subunits throughout.

(Values after PMC2861713.)
